Consider two substances from article PMC5454011.

Experiment [1] has as its target MrsD-protein A fusion protein (shared helix method) (not stated | Staphylococcus aureus). The experiment can be described thus: crystal structure; vapour diffusion; crystals of a single fusion protein.
In experiment [2] the target is YgjG-protein A fusion protein (shared helix method) (E. coli | Staphylococcus aureus). Briefly: crystal structure; vapour diffusion; complex of YgjG-protein A with ZpA963-PKA_C.
Experiment [3] shares this target. The experiment can be described thus: crystal structure; vapour diffusion; complex of YgjG-protein A with ZpA963-calmodulin; 5 mM CaCl2 in all buffers.

With “MrsD-protein A fusion protein (shared helix method)”, the stoichiometry N (commonly a count of units in the complex or per binding partner) in experiment [1] amounted to 12.
For “YgjG-protein A fusion protein (shared helix method)”, the stoichiometry N in experiment [2] and in experiment [3] was 4 each time.
